PMC9825169, “The Caulobacter crescentus DciA promotes chromosome replication through topological loading of the DnaB replicative helicase at replication forks” (Nucleic Acids Research, 2022)
Values belong to the molecule of their own block, whether it stands above or below them.

B2: DnaB with a C-terminal hexahistidine tag (DnaB-His; 56 kDa) (enzyme, Caulobacter crescentus, UniProt A0A0H3C7A8 1-507, looked up)
chain: MPMSLVPALDLVLPGLPEPTINVAPHNMEAEQALLGVLLYDNAAYERLSDNLQARCFYEPFHQRLFQAIETHVRKGQLAEPILLADEFKKDPAFEELGGLRYLADLVDRAPPAANVGDYARVIFDLSLRRELIRIGGDIATAAQGGNDEKRNARDQIEAAEQSLYSLAESGAASSGFVSFGDALRGAVEMTAEAYSRDGGMSGVSTDLMDLDQKIGGLHPSDLIILAGRPSMGKTALATNIAFNIAKKYAYEIQPDGTKKTVQGGVVAFYSLEMSAEQLALRMLADASGVSGDRLRKGEIDASEFGRVRDAAMELQNAPLYIDATGGISIAKLTARARRLKRQVGLDLIVVDYLQLVTGSDLGANANRVQEVSQITMGLKALAKELSVPVIALSQLSRQVEQRDDKRPQLSDLRESGSIEQDADMVWFVYREAYYVGRAEPREGTPEHLTWQEEMDRLQGLAEVIIAKQRHGPIGTVRLSFNSDTTRFGNLARDHYFAQARNIPSDE
notes: Replicative DNA helicase DnaB (CCNA_01737) of Caulobacter crescentus; Hexamer by size exclusion chromatography; Construction details are in the Supplemental Materials; also called C. crescentus DnaB; CCNA_01737; source: E. coli, purified (procedure in the Supplemental Material); not shown: His6, C-terminal, kept

Key:
DnaB-His = biological target: T1, DnaB-His (Caulobacter vibrioides, UniProt A0A0H3C7A8); test: ATPase assay, [alpha-32P]ATP, TLC on PEI cellulose, Michaelis-Menten fit; type: biochemical; conditions: pH 7.5, 10 mM magnesium acetate, 30 C, 5-160 uM ATP, 8.3 nM hexamer, no DciA; labelled compound
T1 construct: gene CCNA_01737; full-length, C-terminal His6 tag kept, expressed in E. coli Rosetta 2(DE3), 56 kDa monomer, hexamer (330 kDa) from size exclusion chromatography

[1] = biological target: B2; test: SEC; Superdex 200 Increase 10/300 GL; 25 mM Tris-HCl pH 7.5, 300 mM sodium chloride, 20% glycerol, 0.1 mM ATP, 5 mM magnesium chloride; 0.2 ml/min; DnaB-His 10 nmol, His-DciA 25 nmol, alone or mixed; fractions on SDS-PAGE with Coomassie staining; conditions: both partners purified
[2] = biological target: the molecule itself; test: as above

Molecule: Nc1ncnc2c1ncn2[C@@H]1O[C@H](COP(=O)(O)OP(=O)(O)OP(=O)(O)O)[C@@H](O)[C@H]1O [ATP]
- ATPase assay, [alpha-32P]ATP, TLC on PEI cellulose, Michaelis-Menten fit (DnaB-His): ATP hydrolysis was readily observed at various concentrations of wild-type DnaB-His

- stoichiometry N [1]: 1.9 DnaB-His per His-DciA
B1: DciA with an N-terminal hexahistidine tag (His-DciA; 21 kDa) (natural protein, Caulobacter crescentus, UniProt A0A0H3C5R2 1-179, looked up)
chain: MRRPLPTPEEAIAILRSKRTKPQRRPPPPAGKNLAPLLKDLEDRFGKGPAALQARWKEIVGDTLARRTEPVRIIKGRNGEGGALELRVDGPVASLIQHQAPQITARLDMLLGKGVVTRLRIVQGPVKAPAAAPSTRLRRKPPLDAALEKQLADSLAEQPDGALKQALLKLGRGVLSSER
notes: DciA (CCNA_00380) of Caulobacter crescentus; This is surmised from the primer; construction details are in the Supplemental Materials; source: E. coli, purified (procedure in the Supplemental Material); not shown: His6, N-terminal, kept

Molecule: B2
- stoichiometry N [2]: 6
